Test results reported in patent US20140037547A1 (UNIVERSITY OF VERMONT AND STATE AGRICULTURAL COLLEGE, published 2014).

How the values were obtained:
SW:329-358 = target: T1, SW:329-358
T1 chain: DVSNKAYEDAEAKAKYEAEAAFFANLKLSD

SW:329-349 = target: T2, SW:329-349
T2 chain: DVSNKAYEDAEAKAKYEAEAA

[1] = target: T3, wild-type PKG Iα (cGMP-dependent protein kinase type Iα, full length) (UniProt P00516 2-671); assay: cell-based or functional assay
T3 sequence (looked up): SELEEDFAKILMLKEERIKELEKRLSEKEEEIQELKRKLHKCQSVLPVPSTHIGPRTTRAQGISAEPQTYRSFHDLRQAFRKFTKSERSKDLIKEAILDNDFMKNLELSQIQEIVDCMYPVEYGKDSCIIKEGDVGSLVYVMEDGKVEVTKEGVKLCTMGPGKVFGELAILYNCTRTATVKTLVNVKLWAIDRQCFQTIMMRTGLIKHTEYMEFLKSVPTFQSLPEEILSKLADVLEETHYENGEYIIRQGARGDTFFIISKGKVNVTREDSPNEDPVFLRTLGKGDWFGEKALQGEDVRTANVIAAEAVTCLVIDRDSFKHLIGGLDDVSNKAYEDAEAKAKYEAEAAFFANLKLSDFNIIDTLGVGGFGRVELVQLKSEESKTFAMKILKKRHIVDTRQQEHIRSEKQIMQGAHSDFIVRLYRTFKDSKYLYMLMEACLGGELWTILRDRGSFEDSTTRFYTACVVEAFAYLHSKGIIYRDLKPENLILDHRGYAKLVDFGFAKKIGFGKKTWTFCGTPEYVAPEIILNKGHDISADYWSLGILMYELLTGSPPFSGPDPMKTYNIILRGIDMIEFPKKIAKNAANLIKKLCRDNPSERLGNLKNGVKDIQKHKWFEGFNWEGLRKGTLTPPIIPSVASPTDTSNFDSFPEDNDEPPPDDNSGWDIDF

B1: wild-type PKG Iα (cGMP-dependent protein kinase type Iα, full length) (protein)
chain: SELEEDFAKILMLKEERIKELEKRLSEKEEEIQELKRKLHKCQSVLPVPSTHIGPRTTRAQGISAEPQTYRSFHDLRQAFRKFTKSERSKDLIKEAILDNDFMKNLELSQIQEIVDCMYPVEYGKDSCIIKEGDVGSLVYVMEDGKVEVTKEGVKLCTMGPGKVFGELAILYNCTRTATVKTLVNVKLWAIDRQCFQTIMMRTGLIKHTEYMEFLKSVPTFQSLPEEILSKLADVLEETHYENGEYIIRQGARGDTFFIISKGKVNVTREDSPNEDPVFLRTLGKGDWFGEKALQGEDVRTANVIAAEAVTCLVIDRDSFKHLIGGLDDVSNKAYEDAEAKAKYEAEAAFFANLKLSDFNIIDTLGVGGFGRVELVQLKSEESKTFAMKILKKRHIVDTRQQEHIRSEKQIMQGAHSDFIVRLYRTFKDSKYLYMLMEACLGGELWTILRDRGSFEDSTTRFYTACVVEAFAYLHSKGIIYRDLKPENLILDHRGYAKLVDFGFAKKIGFGKKTWTFCGTPEYVAPEIILNKGHDISADYWSLGILMYELLTGSPPFSGPDPMKTYNIILRGIDMIEFPKKIAKNAANLIKKLCRDNPSERLGNLKNGVKDIQKHKWFEGFNWEGLRKGTLTPPIIPSVASPTDTSNFDSFPEDNDEPPPDDNSGWDIDF
Ka (activation of PKG Iα, 32P-incorporation assay) (SW:329-358): Ka=500 µM
activation of PKG Iα (32P-incorporation assay, cGMP priming conditions) (SW:329-349): rendered a completely inactive SW-peptide derivative

B2: SW:348-355 AAFFANLK (peptide)
peptide: AAFFANLK
Ka (activation of PKG) [1]: 500 µM
activation relative to activation associated with cGMP [1]: 30%

B3: SW:329-355 (peptide)
peptide: DVSNKAYEDAEAKAKYEAEAAFFANLK
Ka (activation of PKG Iα, cGMP priming conditions) [1]: 500 µM

B4: SW:329-358 (peptide)
peptide: DVSNKAYEDAEAKAKYEAEAAFFANLKLSD
Ka (activation of PKG Iα, kinase primed with 100 nM cGMP) [1]: 40 µM
shift of the activation profile on priming with 100 nM cGMP [1]: 20 fold
